Experimental data from the supplement of paper PMC10201428.
± gives the standard deviation of the averaged measurements.

What follows are sequences tested on VchCAST RNA-guided transposition machinery (E. coli BL21(DE3) host, lacZ target) (assay: relative integration efficiency (T-RL orientation) vs wild-type transposon end (log2 (normalized fold change)); transposon end mutated: right end (5 bp flank + 75 bp right end); higher = more efficient transposition).
Outline: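 Relative integration efficiency is a fold change of output over input barcode abundance, normalised to reference barcodes and log-transformed. Input plasmids and genomic integration junctions were PCR-amplified and Illumina-sequenced from E. coli BL21(DE3) co-transformed with a T7-driven effector plasmid and pUC57 donor pools of 1549 left-end or 1849 right-end transposon variants. Plating was done with 0.1 mM IPTG at 37°C for 18 h, with two biological output replicates and four reference barcodes.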

Row | Sequence | relative integration efficiency (log2)
1 | ACATTTGTTGATACAACCATAAAATGATAATTACACCCATAAATTGATAATTATCACACCCATAAATTGAGCGGTAAGAGGATCATAGTCAGACCAACATTGCTACGACCCGTATTCGCACCGACAC | -0.428 ± 0.035
2 | ACATTTGTTGATACACCCATAAATTGATATTGCCAACCATATATTGATATCTCTCACAACCATAAAGTGATATTTACTCTGATCATAGTCAGACCAACATTGCTACGACCCGTATTCGCACCGACAC | -1.21 ± 0.24
3 | ACATTTGTGTCGACAACCATAAAATGATAATTACACCCATAAATTGATAATTATCACACCCATAAATTGATATTGCCTCTGATCATAGTCAGACCAACATTGCTACGACCCGTATTCGCACCGACAC | -0.916 ± 0.027
4 | ACATTTGTTGATACAACCATCAAATGGTAATTACACCCCTACATTGATAATTATCACACCCAATTTAACTATAACGCTCTGATCATAGTCAGACCAACATTGCTACGACCCGTATTCGCACCGACAC | -5.5 ± 0.092
5 | ACATTTGTTCATACAACCATAAAATGATAATTACACCCATAAATGGATAATTATCACACCCAATTTAACTATAACGCTCTGATCATAGTCAGACCAACATTGCTACGACCCGTATTCGCACCGACAC | -1.57 ± 0.27
6 | ACATTTGTTGATACAACCAGAAAATGATAATTACACCCAGAAATTGATAATTATCACACCCAGAAATTGATATTGCCTCTGATCATAGTCAGACCAACATTGCTACGACCCGTATTCGCACCGACAC | -5.0799 ± 0.0039
7 | ACATTTGTTGATACAACCAGCCCATGATAATTACACCCATAAATTGATAATTATCACACCCATAAATTGATATTGCCTCTGATCATAGTCAGACCAACATTGCTACGACCCGTATTCGCACCGACAC | -4.196 ± 0.023
8 | ACATTTGTTGATACAACCATAATTACATAATTACACCCATAAATTGATAATTATCACACCCATAAATTGATATTGCCTCTGATCATAGTCAGACCAACATTGCTACGACCCGTATTCGCACCGACAC | -2.32 ± 0.15
9 | ACATTTCTTCATACAACCATAAAATGATAATTACACCCATAAATGGATAATTATCACACCCAATTTAACTATAACGCTCTGATCATAGTCAGACCAACATTGCTACGACCCGTATTCGCACCGACAC | -4.17 ± 0.17
10 | ACATTTGTTGATACAACCATAAGTTGATATTTTCACCCATAAATTGATAATTATCAGTGGGTATTTAACTATAACGCTCTGATCATAGTCAGACCAACATTGCTACGACCCGTATTCGCACCGACAC | -1 ± 0.34
11 | ACATTTGTTGATACAACCATAAAATGATAATTAATAACACCCATAAATTGATAATTATCAACAAACGCCCGGTCGCGGTACTCTGATCATAGTCAGACCAACATTGCTACGACCCGTATTCGCACCG | -2.52 ± 0.17
12 | ACATTTGTTGATACTACCATAAAATGATAATTACTCCCATAAATTGATAATTATCACTCCCATAAATTGATATTGCCTCTGATCATAGTCAGACCAACATTGCTACGACCCGTATTCGCACCGACAC | -0.805 ± 0.022
13 | ACATTTGTTCATACAACCATAAAACGATAATTACACCCATAAATTCATAATTATCACACCCAATTTAACTATAACGCTCTGATCATAGTCAGACCAACATTGCTACGACCCGTATTCGCACCGACAC | -3 ± 0.52
14 | ACATTTGTTGATACAACCATAAAATGATAATTACACCCATAAATTGATAATTATCACACCCATAAATTGATATTGCCTCTCCGACCCGGAAGAGGGCGCCTAGAATTGGGAGTGGTCGCACCGACAC | 0.139 ± 0.13
15 | ACATTTGTTGATACAACCATAAAATGATAATTACACCCATAAATTGATAATTATCACACCCATAAATTGATATTGCCTCTGATCATAGTCTTGTGAGCGGATAACAAAGACCAACATGCACCGACAC | 0.141 ± 0.16
16 | ACATTTGTTGATACACCCATAAATTGATAATTACACCCATAAATTGATAATTATCACACCCATAAATTGATAATTACTCTGATCATAGTCAGACCAACATTGCTACGACCCGTATTCGCACCGACAC | -0.6 ± 0.15

Row | Sequence | relative integration efficiency (log2)
17 | ACATTTGTTGATACAACCATAAAATGATAATTACTCTGATCATAGTCAGACCAACATTGCTACGACCCGTATTCGCACCGACACAACGACTATATTTACACCCATAAATTGATAATTATCAGTGGGT | -1.358 ± 0.0083
18 | ACATTTGTTGATACAACCATTAAATGGTAATTACACCCATAAATTGATAATTATCACACCCAATTTAACTATAACGCTCTGATCATAGTCAGACCAACATTGCTACGACCCGTATTCGCACCGACAC | -1.34 ± 0.19
19 | ACATTTGTTGATACAACCATAAAATGATAAATACACCCATAAATTGATAAATATCACACCCATAAATTGATATAGCCTCTGATCATAGTCAGACCAACATTGCTACGACCCGTATTCGCACCGACAC | -0.443 ± 0.15
20 | ACATTTGTTGATACAACCATTAAATGGTAATTCCACCCATATATTGATAATTATCACACCCAATTTAACTATAACGCTCTGATCATAGTCAGACCAACATTGCTACGACCCGTATTCGCACCGACAC | -1.52 ± 0.24
21 | ACATTTGTTGATACAACCATAAAATGATAATTACTCTGATCACCCATAAATTGATAATTATCAGTGGGTATTTAACTATAACGCATAGTCAGACCAACATTGCTACGACCCGTATTCGCACCGACAC | -2.48 ± 0.42
22 | ACATTTGTTGATACAACCATAAAATGATAATTACCCCCATAAATTGATAATGATGACACCGAATTTAACTATAACGCTCTGATCATAGTCAGACCAACATTGCTACGACCCGTATTCGCACCGACAC | -1.63 ± 0.46
23 | ACATTTGTTGATACAACCATAAAGTGATATTTACAACCATAAAGTGATATTTATCACACCCATAAATTGATATTGCCTCTGATCATAGTCAGACCAACATTGCTACGACCCGTATTCGCACCGACAC | -0.0388 ± 0.082
24 | ACATTTGTTGATACAACCATAAAATGATAATTACACCCATAAATTGTAAATTATCACACCCATAAATTGATATTGCCTCTGATCATAGTCAGACCAACATTGCTACGACCCGTATTCGCACCGACAC | -0.602 ± 0.1
25 | ACATTTGTTGATACAACCATAAAAGGATAATTACACCCATCAATTGATAATTATCACACCCCATTTAACTATAACGCTCTGATCATAGTCAGACCAACATTGCTACGACCCGTATTCGCACCGACAC | -2.2 ± 0.15
26 | ACATTTGTTTATACAACCATAAAATGATAATTACACCCATAAATTTATAATTATCACACCCAATTTAACTATAACGCTCTGATCATAGTCAGACCAACATTGCTACGACCCGTATTCGCACCGACAC | -1.89 ± 0.13
27 | ACATTTGTTGATACATGCATAAAATGATAATTACACCCATAAATTGATAATTATCACACCCATAAATTGATATTGCCTCTGATCATAGTCAGACCAACATTGCTACGACCCGTATTCGCACCGACAC | -0.321 ± 0.046
28 | ACATTTGTTGATACCACCATCAAATGGTAATTACACCCCTACATTGATAATTATCACACCCAATTTAACTATAACGCTCTGATCATAGTCAGACCAACATTGCTACGACCCGTATTCGCACCGACAC | -3.15 ± 0.8
29 | ACATTTGTTGATACAACCATAAAGTGATATTTACAACCATAAAATGATAATTATCACACCCATAAATTGATATTGCCTCTGATCATAGTCAGACCAACATTGCTACGACCCGTATTCGCACCGACAC | -0.00564 ± 0.04
30 | ACATTTGTTGATACAACCATAAAATGATAATTACACCCATAAATTGATAATTATCACACCCATAAATTGATATTGCCTCTGATCATAGTCAACTGTATATAAATACAGTTCAGACCAGCACCGACAC | -0.116 ± 0.21
31 | ACATTTGTTGATACAACCATAAAATGATAATTACACCCATAAATTGATAATTAGAACACCCATAAATTGATATTGCCTCTGATCATAGTCAGACCAACATTGCTACGACCCGTATTCGCACCGACAC | -0.195 ± 0.2
32 | ACATTTGTTGATACAACCATAAAATGATAATTCACCCATAAATTGATAATTATCACACCCCAATTTAACTATAACGCTCTGATCATAGTCAGACCAACATTGCTACGACCCGTATTCGCACCGACAC | -1.88 ± 0.17
